Data published in US20220174981A1, “PROLINE TOLERANT TRIPEPTIDYL PEPTIDASES AND USES THEREOF” (DuPont Nutrition Biosciences APS, priority 2014, published 2022).
Peptide text beside a SMILES is read from it.

T1: T. reesei proline tolerant tripeptidyl peptidase TRI083 (SEQ ID No. 1, SEQ ID No. 2 or SEQ ID No. 29) (Trichoderma reesei, UniProt G0RXE9)
T1 sequence (G0RXE9 198-612): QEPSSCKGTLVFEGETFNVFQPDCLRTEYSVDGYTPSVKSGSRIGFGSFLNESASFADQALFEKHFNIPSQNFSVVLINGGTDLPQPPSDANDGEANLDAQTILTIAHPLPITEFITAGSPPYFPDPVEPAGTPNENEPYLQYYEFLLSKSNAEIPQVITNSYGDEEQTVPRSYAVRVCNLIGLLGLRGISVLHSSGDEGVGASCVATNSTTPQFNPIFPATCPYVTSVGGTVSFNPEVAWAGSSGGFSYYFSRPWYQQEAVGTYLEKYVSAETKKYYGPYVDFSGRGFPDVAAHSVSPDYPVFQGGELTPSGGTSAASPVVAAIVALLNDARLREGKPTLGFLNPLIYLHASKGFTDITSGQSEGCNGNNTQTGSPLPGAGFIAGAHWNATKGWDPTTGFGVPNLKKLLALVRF

B1: TRI083: proline tolerant tripeptidyl peptidase (SEQ ID No. 1, SEQ ID No. 2 or SEQ ID No. 29), expressed in Trichoderma reesei (protein)
chain: T1 sequence (G0RXE9 198-612)

Experiments:
Format in all cases: biochemical
[1] = target: T1, T. reesei proline tolerant tripeptidyl peptidase TRI083 (SEQ ID No. 1, SEQ ID No. 2 or SEQ ID No. 29); assay: Product inhibition of proline tolerant tripeptidyl peptidase TRI083 with H-Ala-Ala-Ala-pNA as substrate; settings: competitive inhibitor fit; substrate Ala-Ala-Ala-pNA (0-2000 nM); McIlvaine buffer pH 4.0, 50° C.; tripeptide at 3.6 mM, dipeptide at 18 mM
Experimental: For proline tolerant tripeptidyl peptidase the chromogenic peptide H-Ala-Ala-Ala-pNA was used. The assay was conducted as follows, 27.5 μL of appropriately diluted enzyme was added to 200 μl McIlvaine buffer (20 mM, pH 4.0). After incubation at 50° C. for 5 min, 12.5 μL of the chromogenic peptide solution (5 mg/mL dissolved in dimethyl sulfoxide (DMSO); Sigma-Aldrich, Denmark) were added to the reaction mixture. The reaction was terminated by adding 50 μL of 0.5 M trichloroacetic acid (TCA; Sigma-Aldrich, Denmark). After centrifugation (15,000×g, 5 min), 240 μL of the solution were transferred to a microtiter plate (MTP; Kisker-biotech, Germany) and the absorption was measured in an MTP reader (Molecular Devices, Denmark) at 405 nm. One katal of proteolytic activity was defined as the amount of enzyme required to release 1 mol of p-nitroaniline per second. […]
The inhibition experiments were set up as described in Example 14. […] The degree of pre-hydrolysis of H-Ala-Ala-Ala-OH was determined by gas chromatography (Husek, 1991; FEBS-Letters 280, 354-356). About 0.18 mg/mL alanine was measured, which corresponds to about 54% hydrolyses of the initially applied H-Ala-Ala-Ala-OH.
Subsequently, TRI083 was analyzed for product inhibition without inhibitor, with 1 mg/mL H-Ala-Ala-Ala-OH as well with the PepN pre-hydrolyzed H-Ala-Ala-Ala-OH (1 mg/mL).

H-Ala-Ala-Ala-pNA = assay: Exopeptidase Broad-Specificity Assay (EBSA) with H-Ala-Ala-Ala-pNA; pH and temperature profile
Experimental: 10 μL of the chromogenic peptide solution (10 mM H-Ala-Ala-Ala-pNA dissolved in dimethyl sulfoxide (DMSO); MW=387.82; Bachem, Switzerland) were added to 130 μl Na-acetate (20 mM, adjusted to pH 4.0 with acetic acid) in a microtiter plate and heated for 5 minutes at 40° C. 10 μL of appropriately diluted enzyme was added and the absorption was measured in a MTP reader (Versa max, Molecular Devices, Denmark) at 405 nm. One katal of proteolytic activity was defined as the amount of enzyme required to release 1 mole of p-nitroaniline per second.
The chromogenic peptide H-Ala-Ala-Ala-pNA (MW=387.82; Bachem, Switzerland) was used to determine the activity of proline tolerant tripeptidyl peptidase in the samples produced as described above. The assay was conducted as follows, 10 μL of the chromogenic peptide solution (10 mM dissolved in dimethyl sulfoxide; DMSO) were added to 130 μl Na-acetate (20 mM, adjusted to pH 4.0 with acetic acid) in a microtiter plate and heated for 5 minutes at 40° C. 10 μL of appropriately diluted enzyme was added and the absorption was measured in an MTP reader (Versa max, Molecular Devices, Denmark) at 405 nm. One katal of proteolytic activity was defined as the amount of enzyme required to release 1 mole of p-nitroaniline per second.
The proline tolerant tripeptidyl peptidase assay described with H-Ala-Ala-Ala-pNA substrate above with modification of using the buffers 20 mM Na-glycine (pH 2.0, 2.5, 3.0, 3.5 and 4.0) or 20 mM Na-acetate buffer (pH 4.0, 4.5 and 5.5) was used to determine the pH profile of proline tolerant tripeptidyl peptidase TRI083 (FIG. 2) and TRI045 (FIG. 24)..
The proline tolerant tripeptidyl peptidase assay described above was used at temperatures 25, 50, 55, 60, 65, 70, 75, 80 and 85° C.
For proline tolerant tripeptidyl peptidase the chromogenic peptide H-Ala-Ala-Ala-pNA was used. The assay was conducted as follows, 27.5 μL of appropriately diluted enzyme was added to 200 μl McIlvaine buffer (20 mM, pH 4.0). After incubation at 50° C. for 5 min, 12.5 μL of the chromogenic peptide solution (5 mg/mL dissolved in dimethyl sulfoxide (DMSO); Sigma-Aldrich, Denmark) were added to the reaction mixture. The reaction was terminated by adding 50 μL of 0.5 M trichloroacetic acid (TCA; Sigma-Aldrich, Denmark). After centrifugation (15,000×g, 5 min), 240 μL of the solution were transferred to a microtiter plate (MTP; Kisker-biotech, Germany) and the absorption was measured in an MTP reader (Molecular Devices, Denmark) at 405 nm. One katal of proteolytic activity was defined as the amount of enzyme required to release 1 mol of p-nitroaniline per second.

sodium caseinate = assay: 5% sodium caseinate hydrolysis with endopeptidase, TRI083 and PepN, serine equivalents; settings: 17,500 nkat/mL TRI083
[2] = tested on: whey protein (WPI, Lacprodan-9224); assay: Hydrolysis of 20% whey protein (WPI) with Alphalase FP2 and TRI083, OPA degree of hydrolysis; settings: FP2 0.0%
Experimental: For whey protein hydrolysis, Lacprodan-9224 (Arla Food Ingredients, Denmark) was employed. A 20% (w/w) WPI suspension was prepared in H2Od and adjusted to pH 4.0 with acetic acid (Sigma-Aldrich, Denmark). To prevent microbial growth, 0.0285% (w/w) NaN3 was added. A volume of 200 μl of the WPI suspension was transferred into each of the 96 wells of a microtiter plate (MTP; VWR, Denmark). Subsequently, 5 μl of each consecutively diluted peptidase, Alphalase® FP2 and proline tolerant tripeptidyl peptidase (3PP=TRI083; 0-8750 nkat H-Ala-Ala-Ala-pNA/mL activity in stock solution added), were added to each well, resulting in dosages as shown in Table 1. The MTP was sealed and placed in an EMS incubator/shaker (Thermo Scientific, Denmark) at 40° C. After 24 h of incubation and shaking at 400 rpm, the hydrolyses were stopped by addition of 20 μl of 2 M trichloroacetic acid (TCA; Sigma-Aldrich, Denmark). As a reference, a plain 20% WPI (w/w) suspension was used which was treated in the same manner as the WPI hydrolyses. Unhydrolysed, precipitated WPI was removed by filtration (0.22 μm). On the filtered WPI hydrolysate o-phthaldehyde (OPA) derivatization was conducted according to Nielsen et al. (2001) with minor modifications. A sample volume of 25 μl was transferred to a well and 175 μl of OPA-reagent, dissolved in phosphate buffer pH 11, was added subsequently. The measured absorptions at 340 nm in an MTP reader (Molecular Devices, Denmark) were transformed into the relative degree of hydrolysis (DH) in per cent.
A 20% (w/w) WPI suspension hydrolysed in 6 M HCl (Sigma-Aldrich, Denmark) at 100° C. for 24 h served as reference (100% DH).

Molecule	Ki [1] [mM]	activity at 70° C. and higher temperatures (H-Ala-Ala-Ala-pNA)	Optimum pH (H-Ala-Ala-Ala-pNA; H-Ala-Ala-Ala-pNA, 20 mM Na-glycine pH 2.0-4.0 or Na-acetate pH 4.0-5.5)	optimum temperature (H-Ala-Ala-Ala-pNA; tested at 25-85° C.) [°C]	increase of SE (sodium caseinate) [mM]	Degree of hydrolysis of 20% (w/w) WPI ([2]; TRI083 2,188 nkat/mL stock solution) [%]	Degree of hydrolysis of 20% (w/w) WPI ([2]; TRI083 4,375 nkat/mL stock solution) [%]	Degree of hydrolysis of 20% (w/w) WPI ([2]; TRI083 8,375 nkat/mL stock solution) [%]
C[C@H](N)C(=O)N[C@@H](C)C(=O)N[C@@H](C)C(=O)O [H-Ala-Ala-Ala-OH]	0.34	–	–	–	–	–	–	–
C[C@H](N)C(=O)N[C@@H](C)C(=O)O [H-Ala-Ala-OH] (H-Ala-Ala-OH)	40	–	–	–	–	–	–	–
B1	–	no activity	4.0	50	18	0.5	−0.9	1.4
